Results from patent publication US8728749B2, “Detection of LCAT activity” (priority 2010, dated 2014).

What was measured:
rhLCAT = biological target: T1, rhLCAT (Homo sapiens, UniProt P04180); test: LCAT activating potential of LCAT-activating peptides in mHDL substrate (DHE fluorescence / cholesterol oxidase assay); assay type: biochemical; conditions: specific activity of rhLCAT with peptide/POPC/DHE substrate, 50 μM DHE, relative to SEQ ID NO: 1
T1 construct: made in house; host or cells: HEK293f cells, stably transfected with pcDNA3.1/Hygro carrying the LCAT insert from Origene pCMV6-XL4/LCAT
T1 sequence (P04180 25-440): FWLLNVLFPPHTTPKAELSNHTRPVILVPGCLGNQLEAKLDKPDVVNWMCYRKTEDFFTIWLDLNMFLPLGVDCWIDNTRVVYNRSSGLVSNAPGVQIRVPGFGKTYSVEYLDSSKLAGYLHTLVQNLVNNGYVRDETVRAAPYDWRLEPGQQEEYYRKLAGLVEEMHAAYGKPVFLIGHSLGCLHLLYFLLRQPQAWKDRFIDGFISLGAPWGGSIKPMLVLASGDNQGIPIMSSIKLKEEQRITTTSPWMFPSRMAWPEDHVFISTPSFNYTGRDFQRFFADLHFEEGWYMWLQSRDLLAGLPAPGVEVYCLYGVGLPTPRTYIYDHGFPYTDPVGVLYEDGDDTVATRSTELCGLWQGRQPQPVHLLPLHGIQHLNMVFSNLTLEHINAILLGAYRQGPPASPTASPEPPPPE
Method: Recombinant human LCAT (rhLCAT), isolated from cells expressing human LCAT (Example 5), was diluted into phosphate buffer containing 5 mM β-mercaptoethanol and 60 μM bovine serum albumin to obtain rhLCAT concentrations that would deliver the indicated mass of rhLCAT to assay samples in a 5 μL volume. Substrate, prepared as in Example 1, was diluted to 62.5 μM DHE with phosphate buffer containing 5 mM β-mercaptoethanol and 60 μM bovine serum albumin. One hundred microliter volumes of the diluted substrate were added to individual wells of a black, polystyrene 96-well plate (Whatman 7701-2350) which had previously been loaded with 5 μL of rhLCAT. Blank and control wells were not loaded with rhLCAT. The plate was covered and incubated at 37° C. for one hour. The reaction was quenched by the addition of 25 μL phosphate buffer containing 2% Triton X-100 and 5 units/ml COx (Streptomyces sp.) to all wells except control wells, which received 2% Triton X-100 without COx. The plate was returned to the incubator for one hour, then equilibrated to 37° C. in the plate reader and scanned for DHE fluorescence. Percent fluorescence was calculated from the ratio of the average fluorescence of duplicate wells treated with COx to the average fluorescence of the control wells. The amount of fluorescence remaining after oxidation is directly proportional to the amount of DHE esterified by LCAT. The line represents the fit of the data by linear regression. (FIG. 4).
(§1) Two microliter aliquots of plasma were added to separate assay wells followed by 100 microliters of substrate (Example 2). The assay plate was incubated for 2 hours at 37° C. followed by quenching with COx (Example 2). The nmoles DHE ester formed in each sample was calculated by subtracting the average fluorescence of the blank wells from the fluorescence of each sample well to obtain net fluorescence. The average net fluorescence of sample wells at each rhLCAT level was then divided by the average net fluorescence of control wells and multiplied by the DHE per well, which was 6.25 nmoles, to yield the nmoles of DHE ester formed. The line represents the fit of the data by linear regression. The activity detected at 0 μg/ml rhLCAT (Y-intercept) is the activity of endogenous mouse LCAT in the plasma (FIG. 5).
LCAT-activating peptides, which are produced by solid-phase synthesis (GenScript USA, Inc), are dissolved in methanol at 5 mM concentration. Three hundred and ninety seven microliters of 5 mM LAP and 357 microliters of a chloroform solution containing 25 mM POPC and 2.8 mM DHE are added to a glass vial. The solvents are evaporated by directing a gentle stream of inert gas (e.g. nitrogen) into the vial. Residual solvent is removed by high vacuum for 2 hours. The dried mixture is dispersed in 2 milliliters of phosphate buffer (150 mM NaCl, 50 mM sodium phosphate, 1 mM EDTA, pH 7.4) to obtain a final DHE concentration of 0.5 mM. The vial is flushed with inert gas and capped after buffer addition. The dispersion is obtained by vortexing and brief (10 to 30 seconds) sonication in a water bath sonicator. The substrate is protected from light and stored with inert gas in the capped vial at 2-8° C.
The LCAT activating potential of LAP is determined with the protocol described in Example 2 at a DHE concentration of 50 μM and with the rhLCAT concentrations indicated. A linear regression fit of nmoles DHE ester formed, calculated as in Example 3, versus rhLCAT in the sample yields the specific activity (nmol DHE ester/μg LCAT/hour) of rhLCAT with substrate. This protocol was used to compare and characterize the LCAT activating potential of amphipathic peptides with mean hydrophobicities and mean hydrophobic moments that were sufficient to enable the peptides to form stable micelle complexes with phosphatidylcholine and DHE (Table 3).

[1] = Time course of LCAT activity in plasma from mice injected intravenously with rhLCAT; assay type: in vivo, transgenic mice expressing human apoA-I; conditions: intravenous, 10 mg/kg (30×), plasma collected at 1 hour post-dose
Method: as §1
The utility of the current invention to measure LCAT activity changes in vivo as a result of rhLCAT injection is shown in FIG. 6. Transgenic mice expressing human apoA-I (Jackson Laboratories) and maintained on chow diet were injected (intravenous) with rhLCAT in normal saline at doses of 1 mg/kg (3×), 3 mg/kg (10×) or 10 mg/kg (30×). Control animals were injected with saline alone. Plasma was prepared from blood samples collected at 0.1, 1, 5 and 24 hours following LCAT injection. […]

RELATIVE ACTIVITY (Percent activity relative to SEQ ID: 1) (rhLCAT)	Substance	increase in LCAT activity in plasma [1]
56%	7 (PVLDLFKELLEELFQKLKK) [compound 7]	–
–	rhLCAT: recombinant human LCAT isolated from culture medium of HEK293f cells expressing human LCAT	11 fold
65%	5 (PTLDLFRELLNELLQKLKK) [compound 5]	–
94%	2 (PTLDLFRELLNELLEALKQKLK) [compound 2]	–
43%	10 (EWLKAFYEKVLEKLKELF) [compound 10]	–
21%	12 (EVLKNLLEKLLEKLKELF) [compound 12]	–
55%	9 (EWLKAFLEKVLEKLKELF) [compound 9]	–
86%	4 (PVLDLFRELLNELLQKLKK) [compound 4]	–
0%	14 (DVFQALKELFAQLLEKWKQV) [compound 14]	–
28%	11 (DWLKAFYDKVFEKFKEFF) [compound 11]	–
87%	3 (PSLDLFRELLNELLEALKQKLK) [compound 3]	–
15%	8 (PVLDKFLELLEELFQKLKK) [compound 8]	–
0%	13 (DLWQRLLELFNELLEKLKQALK) [compound 13]	–
65%	6 (PVLDLFRELLEELLQKLKK) [compound 6]	–
